In patent publication US20210095027A1 (Xencor, published 2021):

Target: T1, human CD20 (human, UniProt P11836 1-297)
T1 sequence (looked up): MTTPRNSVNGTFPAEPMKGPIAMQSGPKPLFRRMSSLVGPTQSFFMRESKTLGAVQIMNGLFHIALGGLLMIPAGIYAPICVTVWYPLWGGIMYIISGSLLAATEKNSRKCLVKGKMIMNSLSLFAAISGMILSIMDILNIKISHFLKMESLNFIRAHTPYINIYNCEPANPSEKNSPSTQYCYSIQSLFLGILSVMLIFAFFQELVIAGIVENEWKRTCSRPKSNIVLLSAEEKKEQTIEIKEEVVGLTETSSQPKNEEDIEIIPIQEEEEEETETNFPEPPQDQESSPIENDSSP
Experiment: cell-based or functional assay

B1: XENP13676 (bispecific antibody)
chain 1: QVQLVQSGAEVKKPGASVKVSCKASGYTFTSYNMHWVRQAPGQGLEWMGAIYPGNGDTSYNQKFQGRVTITADKSISTAYMELSSLRSEDTAVYYCARSTYYGGDWYFNVWGAGTLVTVSSASTKGPSVFPLAPSSKSTSGGTAALGCLVKDYFPEPVTVSWNSGALTSGVHTFPAVLQSSGLYSLSSVVTVPSSSLGTQTYICNVNHKPSDTKVDKKVEPKSCDKTHTCPPCPAPPVAGPSVFLFPPKPKDTLMISRTPEVTCVVVDVKHEDPEVKFNWYVDGVEVHNAKTKPREEEYNSTYRVVSVLTVLHQDWLNGKEYKCKVSNKALPAPIEKTISKAKGQPREPQVYTLPPSREEMTKNQVSLTCDVSGFYPSDIAVEWESDGQPENNYKTTPPVLDSDGSFFLYSKLTVDKSRWEQGDVFSCSVMHEALHNHYTQKSLSLSPGK
chain 2: not shown
light: QIVLTQSPSSLSASVGDRVTITCRASSSVSYIHWFQQKPGKSPKPLIYATSNLASGVPVRFSGSGSGTDYTLTISSLQPEDFATYYCQQWTSNPPTFGGGTKVEIKRTVAAPSVFIFPPSDEQLKSGTASVVCLLNNFYPREAKVQWKVDNALQSGNSQESVTEQDSKDSTYSLSSTLTLSKADYEKHKVYACEVTHQGLSSPVTKSFNRGEC
- EC50 of Jeko-1 target cell killing (RTCC) in the absence of rituximab: 24 ng/mL
- EC50 of Jeko-1 target cell killing (RTCC) in the presence of 3 µg/ml rituximab: 51 ng/mL
- EC50 of Jeko-1 target cell killing (RTCC) in the presence of 10 µg/ml rituximab: 93 ng/mL
- EC50 of Jeko-1 target cell killing (RTCC) in the presence of 30 µg/ml rituximab: 162 ng/mL
- EC50 of Jeko-1 target cell killing (RTCC) in the presence of 100 µg/ml rituximab: 387 ng/mL
- EC50 of RTCC against Ramos cells with purified T cells from six healthy donors: 5.3 to 14.3 ng/mL
